# Results as given in US20220033515A1 (Genentech, published 2022).
# Substitutions are numbered along the chain they refer to. Where “and” joins values, the source holds several entries; their conditions need not be identical. Equal values may be shown once. Read-outs that look alike come from different tables or passages of the source.
# B1: 4-4 (scFv, V domains shown)
# VH: not shown
# VL: DIQMTQSPSSLSASVGDRVTITCRASQVVSMTVAWYQQKPGKAPKLLIYGASSLYSGVPSRFSGSGSGTDFTLTISSLQPEDFATYYCQQYGSYSAPPTFGQGTKVEIK
# B2: 4-5 IgG (antibody, V domains shown)
# VH: not shown
# VL: DIQMTQSPSSLSASVGDRVTITCRASQNVGRPVAWYQQKPGKAPKLLIYGGSSLYSGVPSRFSGSGSGTDFTLTISSLQPEDFATYYCQQYGSFGTPPTFGQGTKVEIKR
# notes: not shown: rest of the human IgG heavy chain constant region
# B3: bD2 (antibody, V domains shown)
# VH: not shown
# VL: DIQMTQSPSSLSASVGDRVTITCRASQNIRNGGGLAWYQQKPGKAPKLLIYSASFLYSGVPSRFSGSGSGTDFTLTISSLQPEDFATYYCQQHYTTPPTFGQGTKVEIKR
# B4: bH1 (antibody, V domains shown)
# VH: not shown
# VL: DIQMTQSPSSLSASVGDRVTITCRASQDIPRSISGYVAWYQQKPGKAPKLLIYWGSYLYSGVPSRFSGSGSGTDFTLTISSLQPEDFATYYCQQHYTTPPTFGQGTKVEIKR
# notes: also called anti-hVEGF/Her2 bi-specific antibody
# B5: 4-1 IgG (antibody, V domains shown)
# VH: not shown
# VL: DIQMTQSPSSLSASVGDRVTITCRASQDIWNRRALAWYQQKPGKAPKLLIYEGSSLYSGVPSRFSGSGSGTDFTLTISSLQPEDFATYYCQQGGSYSSPPTFGQGTKVEIKR
# notes: as for B2
# B6: 4-1 (antibody, V domains shown)
# VH: not shown
# VL: B5 VL
# notes: also called 4-1 anti-hDR5
# B7: bD1 (antibody, V domains shown)
# VH: not shown
# VL: DIQMTQSPSSLSASVGDRVTITCRASQNVSKHVAWYQQKPGKAPKLLIYWGSYLYSGVPSRFSGSGSGTDFTLTISSLQPEDFATYYCQQSYSGPPTFGQGTKVEIKR
# B8: H4_D (antibody, V domains shown)
# VH: not shown
# VL: DIQMTQSPSSLSASVGDRVTITCRASQDIRSGSVAWYQQKPGKAPKLLIYWGSYLYSGVPSRFSGSGSGTDFTLTISSLQPEDFATYYCQQHYTTPPTFGQGTKVEIK
# notes: also called H4_D hIgG
# B9: H11 (scFv, V domains shown)
# VH: not shown
# VL: B8 VL with R30M, S31L, Y54F
# B10: H8 (scFv, V domains shown)
# VH: not shown
# VL: DIQMTQSPSSLSASVGDRVTITCRASQEIFPYYVAWYQQKPGKAPKLLIYLGSSLYSGVPSRFSGSGSGTDFTLTISSLQPEDFATYYCQQGWDGPPTFGQGTKVEIK
# B11: H4_N (antibody, V domains shown)
# VH: not shown
# VL: B8 VL with D28N, G52A
# notes: also called H4_N hIgG; H4_N Fab
# B12: H5 (row of FIG.8a) (scFv, V domains shown)
# VH: not shown
# VL: B8 VL with S31G, W51G, H92Y
# B13: 3-4 (scFv, V domains shown, not shown: large carriers; small tags and cut ends)
# VH: not shown
# VL: DIQMTQSPSSLSASVGDRVTITCRASQEVYSYVAWYQQKPGKAPKLLIYPASSLYSGVPSRFSGSGSGTDFTLTISSLQPEDFATYYCQQGFWIGPPTFGQGTKVEIK
# notes: also called c3-4
# B14: 3-7 (antibody, V domains shown)
# VH: not shown
# VL: B13 VL with E28Y, V29I, Y30W, S31R, P50W, A51G, F92L, I94Y, G95S
# notes: also called 3-7 hIgG; 3-7 anti-hVEGF
# B15: H10 (scFv, V domains shown)
# VH: not shown
# VL: DIQMTQSPSSLSASVGDRVTITCRASQDVFTSVAWYQQKPGKAPKLLIYDASYLYSGVPSRFSGSGSGTDFTLTISSLQPEDFATYYCQQRYIWAPPTFGQGTKVEIK
# B16: H7 (scFv, V domains shown)
# VH: not shown
# VL: B13 VL with E28N, Y30W, S31D, Y32W, F92W, W93Y, G95A
# notes: copies: 1 + 1
# B17: 4-6 (scFv, V domains shown)
# VH: not shown
# VL: DIQMTQSPSSLSASVGDRVTITCRASQSVSSAVAWYQQKPGKAPKLLIYSASSLYSGVPSRFSGSRSGTDFTLTISSLQPEDFATYYCQQYSSSPPTFGQGTKVEIK
# B18: 4-2 (scFv, V domains shown)
# VH: not shown
# VL: DIQMTQSPSSLSASVGDRVTITCRASQRINSHTVAWYQQKPGKAPKLLIYWGSHLYSGVPSRFSGSGSGTDFTLTISSLQPEDFATYYCQQYSNRTPPTFGQGTKVEIK
# Legend:
# [1] = biological target: T1, human death receptor 5 (hDR5) (human, UniProt O14763 56-210); experiment: competitive phage ELISA
# T1 construct: also called DR5 long; hDR5-1f
# hVEGF109 [2] = biological target: T2, hVEGF109 (human, UniProt P15692 214-315); experiment: ELISA on immobilised target
# T2 construct: range 8-109; also called VEGF (8-109)
# T2 sequence (looked up): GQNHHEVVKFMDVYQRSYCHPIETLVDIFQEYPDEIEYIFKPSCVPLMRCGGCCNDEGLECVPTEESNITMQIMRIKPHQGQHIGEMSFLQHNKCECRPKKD
# hVEGF165 = biological target: T3, hVEGF165 (human, UniProt P15692-4 27-191); experiment: ELISA on immobilised target
# T3 construct: also called human VEGF165
# murine VEGF (mVEGF) = biological target: T4, murine VEGF (mVEGF) (murine, UniProt Q00731-2 27-190); experiment: ELISA on immobilised target
# T4 sequence (looked up): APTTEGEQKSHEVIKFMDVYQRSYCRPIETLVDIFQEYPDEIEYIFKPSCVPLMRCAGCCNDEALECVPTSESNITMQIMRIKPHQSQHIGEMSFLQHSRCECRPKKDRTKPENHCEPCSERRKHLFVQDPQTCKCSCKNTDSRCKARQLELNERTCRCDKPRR
# hVEGF-D = biological target: T5, hVEGF-D (human, UniProt O43915 93-201); experiment: ELISA on immobilised protein
# T5 sequence (looked up): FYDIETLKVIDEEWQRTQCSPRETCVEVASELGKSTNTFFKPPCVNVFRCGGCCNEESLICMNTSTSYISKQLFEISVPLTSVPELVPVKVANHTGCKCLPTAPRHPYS
# [3] = biological target: T6, human vascular endothelial growth factor (hVEGF) (human, UniProt P15692-4 27-191); experiment: ELISA on immobilised protein
# T6 construct: also called hVEGF-A; human vascular endothelial growth factor A
# [4] = biological target: T7, HER2 extracellular domain (Her2-ECD) (human, UniProt P04626 23-652); experiment: ELISA on immobilised protein
# T7 construct: extracellular domain; also called hHER2 extracellular domain (ECD)
# [5] = biological target: T8, epidermal growth factor receptor extracellular domain (hEGFR) (human, UniProt P00533 25-645); experiment: ELISA on immobilised protein
# T8 construct: extracellular domain
# [6] = biological target: bovine serum albumin (BSA) (bovine, UniProt P02769 25-607); experiment: ELISA on immobilised protein
# hVEGF-C = biological target: T9, hVEGF-C (human, UniProt P49767 103-227); experiment: ELISA on immobilised protein
# T9 sequence (looked up): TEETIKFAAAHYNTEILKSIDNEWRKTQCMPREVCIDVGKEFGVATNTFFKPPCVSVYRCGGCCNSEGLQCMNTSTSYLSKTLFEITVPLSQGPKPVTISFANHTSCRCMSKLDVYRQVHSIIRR
# [7] = biological target: T7, HER2 extracellular domain (Her2-ECD); experiment: equilibrium KD; method and format (Fab or IgG) not given; HER2, second number of the cell
# [8] = biological target: T7, HER2 extracellular domain (Her2-ECD); experiment: competitive phage ELISA
# [9] = biological target: T1, human death receptor 5 (hDR5); experiment: equilibrium KD; method and format (Fab or IgG) not given
# [10] = biological target: T7, HER2 extracellular domain (Her2-ECD); experiment: competitive phage ELISA; remark: listed apart in the source
# hVEGF109 [11] = biological target: T2, hVEGF109; experiment: Biacore SPR, steady state analysis (* for kon and koff)
# [12] = biological target: T7, HER2 extracellular domain (Her2-ECD); experiment: Biacore SPR
# [13] = biological target: T7, HER2 extracellular domain (Her2-ECD); experiment: single-spot competitive phage ELISA
# hVEGF109 [14] = biological target: T2, hVEGF109; experiment: single-spot competitive phage ELISA
# [15] = biological target: T7, HER2 extracellular domain (Her2-ECD); experiment: single-spot competitive phage ELISA; remark: listed apart in the source
# [16] = biological target: T6, human vascular endothelial growth …; experiment: competitive phage ELISA
# hVEGF109 [17] = biological target: T2, hVEGF109; experiment: single-spot competitive phage ELISA; remark: listed apart in the source
# [18] = biological target: T6, human vascular endothelial growth …; experiment: competitive phage ELISA; remark: listed apart in the source
# hVEGF109 [19] = biological target: T2, hVEGF109; experiment: Biacore SPR
binder,measurement,setting,value
B1,IC50,[1],> 1000 nM
B2,binding result,hVEGF109 [2],no binding (tested: 100 nM (text))
same,binding result,hVEGF165,no binding (tested: 100 nM (text))
same,binding result,murine VEGF (mVEGF),no binding (tested: 100 nM (text))
same,binding result,hVEGF-D,no binding (tested: 100 or 500 nM (text))
same,binding result,[3],no binding (tested: 100 or 500 nM (text))
same,binding result,[4],no binding (tested: 100 or 500 nM (text))
same,binding result,[5],no binding (tested: 100 or 500 nM (text))
same,binding result,[6],no binding (tested: 100 or 500 nM (text))
same,binding result,hVEGF-C,no binding (tested: 100 or 500 nM (text))
B3,Kd,[7],100 nM
same,IC50,[8],17 nM
same,Kd,[9],67 µM
B4,Kd,[7],26 nM
same,IC50,[10],10 nM
B5,binding result,hVEGF109 [2],no binding (tested: 100 nM (text))
same,binding result,hVEGF165,no binding (tested: 100 nM (text))
same,binding result,murine VEGF (mVEGF),no binding (tested: 100 nM (text))
same,binding result,hVEGF-D,no binding (tested: 100 or 500 nM (text))
same,binding result,[3],no binding (tested: 100 or 500 nM (text))
same,binding result,[4],no binding (tested: 100 or 500 nM (text))
same,binding result,[5],no binding (tested: 100 or 500 nM (text))
same,binding result,[6],no binding (tested: 100 or 500 nM (text))
same,binding result,hVEGF-C,no binding (tested: 100 or 500 nM (text))
B6,Kd,[9],0.12 µM
B7,Kd,[7],200 nM
same,IC50,[8],30 nM
same,Kd,[9],14 µM
B8,Kd,hVEGF109 [11],2300 nM
same,Kd,[12],11 nM
same,koff,[12],0.0012 s⁻¹
same,kon,[12],100000 M⁻¹ s⁻¹
B9,OD450 without competitor,[13],2.79
B10,"% signal, SSC +/- 50 or 100nM VEGF",hVEGF109 [14],71.2%
same,OD450 without competitor,hVEGF109 [14],2.58
same,OD450 without competitor,[15],0.09
same,IC50,[16],226 nM
B11,Kd,hVEGF109 [11],550 nM
same,Kd,[12],10 nM and 6 nM
same,koff,[12],0.0013 s⁻¹
same,kon,[12],140000 M⁻¹ s⁻¹ and 230000 M⁻¹ s⁻¹
B12,"% signal, SSC +/- 50nM Vegf",hVEGF109 [17],88.8%
same,OD450 without competitor,hVEGF109 [17],2.77
same,OD450 without competitor,[13],2.87
B13,IC50,[18],32 nM
same,OD450 without competitor,[15],0.05
B14,IC50,[18],16 nM
same,Kd,hVEGF109 [19],3 nM and 7 nM
same,koff,hVEGF109 [19],0.0025 s⁻¹ and 0.0042 s⁻¹
same,kon,hVEGF109 [19],800000 M⁻¹ s⁻¹ and 580000 M⁻¹ s⁻¹
B15,"% signal, SSC +/- 50 or 100nM VEGF",hVEGF109 [14],49%
same,OD450 without competitor,hVEGF109 [14],2.08
same,OD450 without competitor,[15],0.04
same,IC50,[16],170 nM
B16,IC50,[16],60 nM
B17,IC50,[1],16 nM
B18,IC50,[1],> 1000 nM
